Consider 2 substances from article PMC5320947 (Angewandte Chemie (International ed. in English), 2016).

Data set [1] concerns fed blood glucose levels in C57BL/6J mice. The format is in vivo.
Details of data set [2]: species or system mice. To be noted: mouse, in vivo.

For the substance “exendin–C–PMPC75k: exendin–4 C–terminal conjugate with zwitterionic PMPC, larger conjugate”, in data set [1], the “duration of blood glucose reduction after a single s.c. injection” value is “up to 3 days”.
As to green fluorescent protein [native GFP], in data set [2], the “area under the curve (AUC)” value was 14 %h/mL, the “terminal elimination phase T1/2β” value amounted to 4 h and the “total body clearance (CL) rate” value came to 7 mL/h.
